Experiment: yeast display, Sf9 membrane polyspecificity reagent, FACS + sequencing; frameworks hold sequencing errors
Outline: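 Nanobodies from a synthetic yeast display library (Saccharomyces cerevisiae BJ5465), induced 36–48 hours with galactose, were stained 1 hour at 4 °C with 10% biotinylated, detergent-solubilized Sf9 membrane reagent, enriched on streptavidin microbeads, then FACS-sorted. Anti-HA (expression) and streptavidin (reagent binding) fluorescence set low and high (top ~1%) gates. Polyreactivity labels come from the gate of origin. Genes were colony-PCR amplified, MiSeq 2 × 250 sequenced and filtered by CDR length.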

Row | Sequence | polyreactivity (PSR sort gate)
1 | QVQLVESGGGLVQAGGSLRLSCAASGSTFDVYAMGWYRQAPGKERELVAAISLGTGITYYADSVKGRFTISRDNAKNTVYFQMNSLKPEDTAVYYCAVAIETGYGAYDGYIYYYWGQGTQVTVSS | high polyreactivity
2 | QVQLVESGGGLVQAGGTLRLSCAASGSIVVGNTMGWYRQAPGKERELVAAITWSGGRTYYADSVKGRFTISRDIAKNTVYLQMNSLKPEDTAVYYCAAPTYLRRGMDTYNLGYGYWGQGTQVTVSS | high polyreactivity
3 | QVQLVESGGGLVQAGGSLRLSCAASGFIFGVNTMGWYRQAPGKERELVAAINSGGSTNYADSVKGRFTISRDNAKNTVYLLMNSLKPEDTAVYYCAVRHFWYRWGWYNYWGQGTEVTVSS | high polyreactivity
4 | QVQLVESGGGLVQAGGSLRLSCAASGFTFYWYTMGWYRPAPGKERELVATISGSGGRTYYADSVKGRFTISRDNAKNTVYLQMNSLKPEDSAVYYCNAGRPYKYGYWGQGTQVTVSS | high polyreactivity
5 | QVQLVESGGGLVQAGGSLRLSCAASGSIFAWYGMGWYRQAPGKERELVAAITSTGSTYYADSVKGRFTISRDNAKNTVYLQMNSLKPEDTAVYYCNAYSVYLWRPGDYWGQGTQVTVSS | low polyreactivity
6 | QVQLVESGGGLVQAGGRLRLSCAASGRTVNQYAMGWYRQAPGKERELVAAISWSGGRTYYADSVKGRFTISRDNDKNTDYLQMNSLKPEDTAVYYCNKLTRDGRKEDYWGQGTQVTVSS | high polyreactivity
7 | QVQLVDSGGGLVQAGGSLRLSCAASGSTFYGYAMGWYRQAPGKERELVATISSSGAITYYADSVKWRFTISRDNAKNTVYLQMNRLKPEDPAVYYCARTGSLLSQVWYNYWGQGTQVTVSS | low polyreactivity
8 | QVQLVESGGGVVQAGGSLRLSCAASGITFRSYLMGWYRQAPGKEREFVAAITGSAGSTYYADSVKGRFTISRDNAKTTVYLQINSLKAEDTAVYYCAARVRYVNPKYYYLGQGTQVTVSS | high polyreactivity
9 | QVQLVESGGGLVQAGGSLRLSCAASGRTFYLYAMGWYRQAPGKERELVADISWDGDSTYYADSVKGRFTISRDNAKNTVYLQMNSLKPEDTAVYYCAADYFYYYEQYLWYTYDYWGQGTQVTVSS | high polyreactivity
10 | QVQLVESGGGLVQAGGSLRLSCAASGRTFVRNAMGWSRQAPGKERELDAAITSGGSTYYADSVKGRFTISRDNAKNTVYLQMNSLKPEDTAVYYCAAVDRRYGPTYKMGYWGQGTQVTVSS | high polyreactivity
11 | QVQLVESGGGLVQAGGSLRLICAASGSTFTLYAMGWYRQAPGKERELVAAISGIGDSTYYADSVKGRFTISRDNAKNTVYLQMNSLKPEDTAVYYCAADGEYRYDWEYESWGQGTQVTVSS | low polyreactivity
12 | QVQLVESGGRLVQAGGSLRLSCAASGSTFQYNAMGWYRQAPGKERELVAAISLSGGSTYYADSVKGRFTISRDNAKNRVYLQMNSLKPEDTAVYYCAARQWYRYKVRFDYWGQGTQVTVSS | high polyreactivity
13 | QVQLVESGGGLVQAGGSLRLSCAASGRIFSQNTMGWYRQAPGKERELVATITTSDGSTSYADSVKGRFTISRDNAKNTVYLQMNSLKPEDTAVYYCNARLSKYEGYWVWQYDYWGQGTQVTVSS | low polyreactivity
14 | QVQLVESGGGLVQAGCSLRLSCAASGRIFPRNVMGWYRQAPGKERELVAAISSRGTRTYYADSVKGRFTISRDNAKNTVYLQMNSLKPEDTAVYYCAADGPYEGYDYWGLGTQVTVSS | high polyreactivity
15 | QVQLVESGGGLVQAGGSLRLSCAASGRTFLGYAMGWYRQAPGKERELVAAISWDGTSTYYADSVKGRFTISRDNAKNTVYLQMNSLKPEDTAVYDCAAQLTDYQSKTLSYDYWGQGTQVTVSS | low polyreactivity
16 | QVQLVESGGGLVQAGGSLRLSCAASGFIFAQNTMGWYRQAPGKERELVAAITRRGGSTYYADSVKGRFTISRDNAKNTVYLQMNSLKPEDTAVYYCNVAFRSYYTSSLLDYWGQGTQVTVSS | high polyreactivity
17 | QVQLVESGGGLVQAGGSLRLSCAASGRIFNSKAKGWYRQEPGKERELVAAISWSGGTTYYADSVKGRFTISRDNAKNTVYLQMNSLKPEDTAVYYCNADLWTSYFGRGDYWGQGTQVTVSS | low polyreactivity

Source: the nanobody polyreactivity screen of Harvey et al. (2022)
